The experiment addresses T1, amyloid-β peptide residues 12–28 (Aβ12–28), wild type.
T1 construct: cut product of the amyloid precursor protein; numbers count on: the Aβ peptide (Asp1 of Aβ); also called Aβ peptide; mid-region of the Aβ peptide; source: bought: Anaspec (95% purity)
T1 chain: VHHQKLVFFAEDVGSNK
Put plainly: crystal structure; Fab:Aβ12–28 mixed at molar ratio 1:2, dialysed in 10 mM HEPES pH 7.5; crystals from 16% w/v PEG 3350, 50 mM sodium citrate pH 4, 295 K; 2.4 Å, two complexes in the asymmetric unit. The conditions noted are these: both partners purified.

B1: solanezumab Fab fragment (recombinant, Asn55(H2)Ser) (Fab, V domains shown)
VH: EVQLVESGGGLVQPGGSLRLSCAASGFTFSRYSMSWVRQAPGKGLELVAQINSVGSSTYYPDTVKGRFTISRDNAKNTLYLQMNSLRAEDTAVYYCASGDYWGQGTLVTVSS
VL: DVVMTQSPLSLPVTLGQPASISCRSSQSLIYSDGNAYLHWFLQKPGQSPRLLIYKVSNRFSGVPDRFSGSGSGTDFTLKISRVEAEDVGVYYCSQSTHVPWTFGQGTKVEIK
notes: Fab heavy chain of solanezumab; glycosylation site removed by Asn55(H2)Ser; Fab light chain of solanezumab; Parent antibody is IgG1; only the Fab portion was made; source: FreeStyle 293-F cells, co-transfected, purified from supernatant (Ni-NTA, SEC)
As to B1, the binding result is “binds”.

The record behind these values is article PMC4549621, “Molecular basis for mid-region amyloid-β capture by leading Alzheimer's disease immunotherapies” (Scientific Reports, 2015).
